Where “and” joins values, the source holds several entries; their conditions need not be identical. Equal entries are not always repeated.

The target of assay [1] is rat brain Na channel (voltage-sensitive sodium channels in rat brain membranes) (rat). Nature of the assay: binding of 125I-δ-conotoxin TxVIA to rat brain membranes, no competitor.
The target in assay [2] is rat brain Ca^2+ channels (ω-conotoxin GVIA binding site in rat brain membranes) (rat). Nature of the assay: binding of 125I-ω-conotoxin GVIA to rat brain membranes, no competitor.
Assay [3] has the same target. As to the kind of experiment: competition on rat brain membranes; label (competitor) 125I-ω-conotoxin GVIA.
For assay [4], the target named is rat brain Na channel (voltage-sensitive sodium channels in rat brain membranes) (rat). As to the kind of experiment: competition on rat brain membranes; label (competitor) 125I-δ-conotoxin TxVIA.
In assay [5] the target is ω-conotoxin GVIA binding sites on brain membrane preparations from frogs, chicks and rats.

With ^125 I!δ-conotoxin TxVIA (peptide), the cpm bound in assay [1] stood at 4890 cpm.

Substance “^125 I-labeled ω-conotoxin GVIA (from UniProt P01522) (peptide)” returned a cpm bound in assay [2] of 4400 cpm.

For the substance δ-conotoxin PVIA (amidated) (peptide), the cpm bound in assay [3] was determined as 4930 cpm; in assay [4], 889 cpm.

In the case of “δ-conotoxin PVIA (nonamidated) (peptide)”, the figures for the cpm bound in assay [3] and in assay [4] were 4390 cpm and 848 cpm, respectively.

As to δ-conotoxin TxVIA (peptide), the cpm bound in assay [3] worked out at 4720 cpm; in assay [4], 925 cpm.

For “ω-conotoxin GVIA (from UniProt P01522) (peptide)”, the percent of ^125 I-GVIA displaced in assay [5] was 90% and 98%. Further, the cpm bound in assay [3] amounted to 954 cpm; in assay [4] it was 4710 cpm.

(Values after patent publication US5739276.)
